This is an account of results in patent US6994959, “G-rich oligo aptamers and methods of modulating an immune response” (Valeant Research & Development).

The target in data set [1] is T1, Sp1 (UniProt P08047 P08047:2-785). In words: EMSA; band A; competed by cold ds 28b oligo; room temperature. The settings on record: tags: Promega purified Sp1; label: 32P. The method, then: (§1) In an effort to restrict the precise Sp1 binding region in 28b to the G-rich motif in the CD28 promoter region –197 to +28, we synthesized a double stranded (ds) 30mer oligo called 28b oligo (Seq #1 Table 1) which contains the 12mer GGGGAGGAGGGG within its sequence. We hypothesized that this was a Sp1 binding site in the CD28 promoter region. Following 32P-labeling, 28b oligo was incubated with Sp1 extract and indeed they bind to each other (FIG. 5, band A, lane 2 and 3). Competition with cold ds 28b oligo caused the band to disappear showing indeed that the binding was specific to Sp1 (lane 4). […] The consequence of this interaction is the prevention of Sp1 binding to the Sp1 site at –51 to –22 in the promoter region and which inhibits Sp1-mediated transcription of the CD28 gene and decreases expression of the mature CD28 protein.
T1 sequence (P08047 2-785, one chain of several): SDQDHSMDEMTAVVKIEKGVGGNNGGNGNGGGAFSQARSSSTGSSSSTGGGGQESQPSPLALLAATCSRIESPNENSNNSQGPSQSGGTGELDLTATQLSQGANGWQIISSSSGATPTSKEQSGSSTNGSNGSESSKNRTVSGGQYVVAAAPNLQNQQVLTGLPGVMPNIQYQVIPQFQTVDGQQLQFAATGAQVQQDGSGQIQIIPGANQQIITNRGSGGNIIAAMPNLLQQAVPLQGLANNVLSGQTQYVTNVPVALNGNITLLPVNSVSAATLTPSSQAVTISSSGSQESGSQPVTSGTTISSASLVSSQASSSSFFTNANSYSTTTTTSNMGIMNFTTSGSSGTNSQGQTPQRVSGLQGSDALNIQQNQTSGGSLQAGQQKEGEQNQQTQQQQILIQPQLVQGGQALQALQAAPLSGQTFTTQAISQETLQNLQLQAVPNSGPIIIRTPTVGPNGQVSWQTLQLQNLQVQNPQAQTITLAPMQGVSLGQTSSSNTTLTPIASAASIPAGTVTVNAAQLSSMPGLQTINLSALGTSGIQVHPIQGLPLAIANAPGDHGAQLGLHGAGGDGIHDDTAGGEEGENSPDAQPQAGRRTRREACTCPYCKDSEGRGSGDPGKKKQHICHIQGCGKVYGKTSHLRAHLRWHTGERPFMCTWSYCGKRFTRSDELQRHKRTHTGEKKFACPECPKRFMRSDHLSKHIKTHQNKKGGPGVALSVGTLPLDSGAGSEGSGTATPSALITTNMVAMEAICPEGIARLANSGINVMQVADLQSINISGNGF
(In general: Mobility shift assays separate free from complexed probe on a gel.)

The target in data set [2] is T1, Sp1. In words: competition; competes with 32P ds 28b oligo; about 70-100 molar excess. The settings on record: tags: Promega purified Sp1. The method, then:
as §1

Data set [3] concerns the target T1, Sp1. In words: competition; control oligo did not compete; about 70-100 molar excess. The settings on record: tags: Promega purified Sp1. As to the method:
as §1

B1: 28b oligo (-51 to -22) (dsDNA)
DNA 1: GGGTTCCTCGGGGAGGAGGGGCTGGAACCC
DNA 2: GGGTTCCAGCCCCTCCTCCCCGAGGAACCC
Consider B1, for which the binding result in the data set with Sp1 [1] is given as “binds”.

B2: ICN 16481 (ssDNA)
DNA: GGGGAGGAGGGGCTGGAA
modifications: PS all linkages
On to B2, for which the binding result with Sp1 [2] is reported as “binds”.

B3: ICN 16064 (ssDNA)
DNA: TTGGAGGGGGTGGTGGGG
modifications: PS all linkages
Consider B3, for which the binding result in the data set with Sp1 [2] is recorded as “binds”.

B4: ICN 16476 (ssDNA)
DNA: TTCCAGCCCCTCCTCCCC
modifications: PS all linkages
Take B4: the binding result with Sp1 [3] is “no binding”.
